Data reported in PMC6555819, “Comprehensive study of nuclear receptor DNA binding provides a revised framework for understanding receptor specificity”.

B1: NRC3_wobSeed136_DR5_G26C_o1 (dsDNA)
DNA 1: GCTAGCCTAGGTCATTCAGGGGCCACTATAGAAAGCGCGATTGACAGCGTAGAATGAAGG
DNA 2: CCTTCATTCTACGCTGTCAATCGCGCTTTCTATAGTGGCCCCTGAATGACCTAGGCTAGC
B2: NRC3_wobSeed136_DR5_T27C_o1 (dsDNA)
DNA 1: GCTAGCCTAGGTCATTCAGGGGCCAGCATAGAAAGCGCGATTGACAGCGTAGAATGAAGG
DNA 2: CCTTCATTCTACGCTGTCAATCGCGCTTTCTATGCTGGCCCCTGAATGACCTAGGCTAGC
B3: NRC3_wobSeed125_DR5_A30G_o1 (dsDNA)
DNA 1: GCCCTTACGGGTCACTGACAGGTTATAGCGTTTGGAGCGATTGACAGCGTAGAATGAAGG
DNA 2: CCTTCATTCTACGCTGTCAATCGCTCCAAACGCTATAACCTGTCAGTGACCCGTAAGGGC
B4: NRC3_wobSeed18_DR0_A4T_o1 (dsDNA)
DNA 1: GCGTTACAGGGTCAAGGCCAGAGTACGCGTATTGATGCGATTGACAGCGTAGAATGAAGG
DNA 2: CCTTCATTCTACGCTGTCAATCGCATCAATACGCGTACTCTGGCCTTGACCCTGTAACGC
B5: NRC3_wobSeed76_DR3_o1 (dsDNA)
DNA 1: GCCCTACTGGGCCAAAAAGGTCATTGATGCCGATAAGCGATTGACAGCGTAGAATGAAGG
DNA 2: CCTTCATTCTACGCTGTCAATCGCTTATCGGCATCAATGACCTTTTTGGCCCAGTAGGGC
B6: NRC3_wobSeed37_DR1_G10A_o1 (dsDNA)
DNA 1: GCCGTCCAAAGTCAAAGGTCAGTGAAGAGATGACGGGCGATTGACAGCGTAGAATGAAGG
DNA 2: CCTTCATTCTACGCTGTCAATCGCCCGTCATCTCTTCACTGACCTTTGACTTTGGACGGC
B7: NRC3_wobSeed133_DR5_G22A_o1 (dsDNA)
DNA 1: GCCGTCCAAGGTCAATGCTAGATCAGTGAAAGCATTGCGATTGACAGCGTAGAATGAAGG
DNA 2: CCTTCATTCTACGCTGTCAATCGCAATGCTTTCACTGATCTAGCATTGACCTTGGACGGC
B8: NRC3_wobSeed53_DR2_A22G_o1 (dsDNA)
DNA 1: GCCCTTACGGGTCACGAGGTTGTAGCACGACGAGCGGCGATTGACAGCGTAGAATGAAGG
DNA 2: CCTTCATTCTACGCTGTCAATCGCCGCTCGTCGTGCTACAACCTCGTGACCCGTAAGGGC
B9: NRC3_wobSeed40_DR1_G5C_o1 (dsDNA)
DNA 1: GCTACCCTAGGTCATGGGCCAGTATACCACGCGAACGCGATTGACAGCGTAGAATGAAGG
DNA 2: CCTTCATTCTACGCTGTCAATCGCGTTCGCGTGGTATACTGGCCCATGACCTAGGGTAGC
B10: NRC3_wobSeed27_DR1_G10T_o1 (dsDNA)
DNA 1: GCACTCGGATGACAAAGGTCAGAGCTACGCCAGTGAGCGATTGACAGCGTAGAATGAAGG
DNA 2: CCTTCATTCTACGCTGTCAATCGCTCACTGGCGTAGCTCTGACCTTTGTCATCCGAGTGC
B11: NRC3_wobSeed27_DR1_A23G_o1 (dsDNA)
DNA 1: GCACTCGGAGGACAAAGGTCAGGGCTACGCCAGTGAGCGATTGACAGCGTAGAATGAAGG
DNA 2: CCTTCATTCTACGCTGTCAATCGCTCACTGGCGTAGCCCTGACCTTTGTCCTCCGAGTGC
B12: NRC3_wobSeed137_DR5_T27C_o1 (dsDNA)
DNA 1: GCATATGTAGGTTACATCCGGGTCATCCAGGCTATGGCGATTGACAGCGTAGAATGAAGG
DNA 2: CCTTCATTCTACGCTGTCAATCGCCATAGCCTGGATGACCCGGATGTAACCTACATATGC
B13: NRC3_wobSeed58_DR2_G21A_o1 (dsDNA)
DNA 1: GCATCGAAAGGTCGTGAGGTAAGTATACAGAAAGGCGCGATTGACAGCGTAGAATGAAGG
DNA 2: CCTTCATTCTACGCTGTCAATCGCGCCTTTCTGTATACTTACCTCACGACCTTTCGATGC

target: LXRa:RXRa (Homo sapiens, UniProt Q13133;P19793 full;full); assay: no ligand; PBM; 270 nM : 90 nM RXRa; PBS pH 7.4, 2% milk, 0.02% Triton X-100, 1 mM DTT, BSA, 0.4 mg/ml salmon testes DNA; settings: tags: His kept;His cleaved; copies: 1;1; label: surface-attached array probe
How it was run: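 Custom Agilent 4×180K protein-binding microarrays carried double-stranded probes, each with a 34-nt variable region. These regions held direct-repeat seeds, single-nucleotide variants, half-site ablations and random human genomic background sequences. Ligand-free nuclear receptor dimers were incubated on the arrays for 1 h, antibodies against each partner (one per run) detected binding, and scanned fluorescence was regression-normalized. Binding z-scores take the random background probes as reference.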

Chain of LXRa:RXRa (Q13133 whole entry, chain 1 of 2): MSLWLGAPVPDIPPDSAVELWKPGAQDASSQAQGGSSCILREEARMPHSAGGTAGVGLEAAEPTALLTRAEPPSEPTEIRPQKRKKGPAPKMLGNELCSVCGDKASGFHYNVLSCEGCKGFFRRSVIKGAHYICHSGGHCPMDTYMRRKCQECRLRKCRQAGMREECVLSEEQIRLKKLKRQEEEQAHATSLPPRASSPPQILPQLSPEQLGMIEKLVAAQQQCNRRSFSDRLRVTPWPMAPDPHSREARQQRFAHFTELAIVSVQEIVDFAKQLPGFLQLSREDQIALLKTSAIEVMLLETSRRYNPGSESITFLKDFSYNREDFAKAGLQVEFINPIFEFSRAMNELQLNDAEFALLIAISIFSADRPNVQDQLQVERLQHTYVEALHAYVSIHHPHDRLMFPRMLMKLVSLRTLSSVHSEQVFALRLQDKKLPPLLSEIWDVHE
Chain of LXRa:RXRa (P19793 whole entry, chain 2 of 2): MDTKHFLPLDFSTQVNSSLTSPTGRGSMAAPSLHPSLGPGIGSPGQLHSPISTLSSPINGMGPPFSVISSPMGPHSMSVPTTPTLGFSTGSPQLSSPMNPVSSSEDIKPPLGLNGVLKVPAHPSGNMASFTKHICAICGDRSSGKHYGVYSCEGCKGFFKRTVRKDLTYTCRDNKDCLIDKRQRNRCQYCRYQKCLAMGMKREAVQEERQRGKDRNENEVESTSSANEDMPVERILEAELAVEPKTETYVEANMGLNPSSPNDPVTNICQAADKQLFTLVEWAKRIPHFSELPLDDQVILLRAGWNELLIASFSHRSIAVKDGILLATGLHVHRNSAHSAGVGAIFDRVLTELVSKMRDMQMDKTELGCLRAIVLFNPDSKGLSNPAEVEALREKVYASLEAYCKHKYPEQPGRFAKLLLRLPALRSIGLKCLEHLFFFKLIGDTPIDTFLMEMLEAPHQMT

Point of comparison: B7, binding signal 4.19 PBM z-score against 500 random probes. Against it:
- B1 — higher, 4.28 PBM z-score against 500 random probes
- B2 — lower, 3.99 PBM z-score against 500 random probes
- B3 — lower, 4.16 PBM z-score against 500 random probes
- B4 — lower, 4.02 PBM z-score against 500 random probes
- B5 — higher, 4.25 PBM z-score against 500 random probes
- B6 — lower, 3.96 PBM z-score against 500 random probes
- B8 — lower, 4.14 PBM z-score against 500 random probes
- B9 — higher, 6.6 PBM z-score against 500 random probes
- B10 — lower, 4.09 PBM z-score against 500 random probes
- B11 — lower, 4.04 PBM z-score against 500 random probes
- B12 — higher, 4.22 PBM z-score against 500 random probes
- B13 — lower, 4.07 PBM z-score against 500 random probes
